Experimental data from publication PMC6199149.

How the values were obtained:
[1] = biological target: nuclear dUTP nucleotidohydrolase (nuclear isoform of dUTPase), endogenous (human (endogenous in U-2 OS, Saos2, A549, 18Co, HeLa)); assay: cross-linking
[2] = biological target: nuclear dUTP nucleotidohydrolase (nuclear isoform of dUTPase), endogenous (human (endogenous in U-2 OS, Saos2, A549, 18Co, HeLa)); assay: non-reducing SDS-PAGE with western blot
[3] = biological target: recombinant Wt nuclear dUTPase with N-terminal hexahistidine tag, from E. coli (human); conditions: scale: pmol of dUTP per minute per ng of protein

Row | dUTPase enzymatic assay (37°C, 5 min, no reducing agent) [3] | Substance | stoichiometry N [1] | stoichiometry N [2]
1 | – | nuclear dUTP nucleotidohydrolase (nuclear isoform of dUTPase), endogenous (enzyme) | 2 | 2
2 | 7.27 | recombinant Wt nuclear dUTPase with N-terminal hexahistidine tag, from E. coli (enzyme) | – | –
